# In publication PMC10238197, “Deafness‐Associated ADGRV1 Mutation Impairs USH2A Stability through Improper Phosphorylation of WHRN and WDSUB1 Recruitment” (Advanced Science, 2023):
# B1: Flag-WHRN (wild type) [mouse] / GFP-WDSUB1 (WD repeat, SAM, and U-box domain-containing protein 1) [mouse] (parent)
# chain 1: MNAQLDGLSVSSSSTGSLGSAAAAAGGGGGAGLRLLSANVRQLHQALTALLSEPEREQFTHCLNAYHARRNVFDLVRTLRVLLDSPVKRRLLPMLRLVIPRSDQLLFDQYTAEGLYLPATTPYRQPAWAAPDGAGPGEVRLVSLRRAKAHEGLGFSIRGGSEHGVGIYVSLVEPGSLAEKEGLRVGDQILRVNDKSLARVTHAEAVKALKGSKKLVLSVYSAGRIPGGYVTNHIYTWVDPQGRSTSPPSSLPQPHGSTLRQREDDRRSTLHLLQSGDEKKVNLVLGDGRSLGLTIRGGAEYGLGIYITGVDPGSEAESSGLKVGDQILEVNGRSFLNILHDEAVKLLKSSRHLILTVKDVGRLPHARTTVDQTKWIASSRIGESVANSAGFPGDHTEEGTSKPGFYKGPAGSQVTLSSLGNQTRALLDDQARHLLTEQERATMMYYLAQYRGGTISVEAMVMALFELLNTHAKFSLLSEVRSIISPQDLDRFDHLVLRREIESMKARQPPGPGVGDTYSMVSYSDTGSSTGSHGTSTTVSSARERLLWLIDLMENTLDLEGTGETTQGSTNALPDVSVDDVKSPSEDLPGIKPPPPPPPLAQGHDRLLGQPRKPGREDPAPLSSAAHSGIVFSAPRNRSPPPGTAPTPGPSSAQDSPSSPIYASISHANPSSRKPLDTHLALVNQHPIGPFPRVQSPPHLKSPPAETPGAGACLPPPSPSEHPDAVGANQHFVLVEVHRPDSEPDVNEVRALPQTRTASTLSQLSDSGQTLSEDSGVDAGETEASTSGRGRQTASAKNKNGKEQPRTERTAEGANKPPGLLEPTSTLVRVRKSAATLGIAIEGGANTRQPLPRIVTIQRGGSAHNCGQLKVGHVILEVNGQTLRGKEHKEAARIIAEAFKTKERDYIDFLVTEFNVML
# chain 2: MVRLIHTLADHGDDVSCCAFSAALLATCSLDKTIRLYSLSDFAELPYSPLKFHTYAVHCCCFSPSGHVLASCSTDGTTVLWSSHSGHTLTVLEQPGGSPVRVCCFSPDSAYLASGAADGSIALWNAQTYKLYRCGSVKDSSLVACAFSPDGGLFVTGSSGGDLTVWDDRMRCLHSEKAHDLGITCCSFSSQPLSGGEGLQSYQLASCGQDCEIKLWAVTITRVLGFELKYKSTLSGHCAPVLACAFSHDGKMLASGSVDKSVIIHGIGPQSVLHTLTQHTRYVTTCAFAPNTLLLATGSMDKTVNIWQFDLETPCQGSMNDPLKHFTEEWSEEDVSVWLRAQGLEDLVGIFRANNIDGKELLHLTKESLAGDLKIESLGLRSKVLRSIEELRAKMDSLSSGIPDEFICPITRELMKDPVIASDGYSYEREAMESWIHKKKRTSPMTNLALPSLVLTPNRTLKMAINRWLETHEK
# Variants of: B1
# Assay: co-immunoprecipitation (band intensity quantified)
# Details: with GFP-WDSUB1 (WD repeat, SAM, and U-box domain-containing protein 1) [mouse]; HEK293 cells; n = 3; parent: 1; read off a plot
row,Variant,ratio to parent
1,chain 1 S85E,1
2,chain 1 S156E,1.8
3,chain 1 S37E,1
4,chain 1 S156E S246E,2.6

# The next lines start with the values.
row,ratio to parent,Variant
1,2.1,chain 1 S246E
2,1,chain 1 S384E
